Target: JUNV GP1 (Junín virus GP1 glycoprotein, residues 87 to 232) (Junín virus (JUNV), strain XJ13 …, UniProt C1K9J9)
Assay: crystal structure
Settings: both partners purified

B1: Fab fragment of NAb JUN1 (Fab, V domains shown)
VH: LVQSVETGGGLVRPGNSLKLSCVTSGFTFSNYQMHWLRQPPGKRLEWIAVITVKSDNYGANYVESVKGRFAISRDDSKSSVYLEMNRLREEDTATYFCSRSGIYDGYYAYAMDYWGQGTSVTVSS
VL: SVVMTQSQKFMSTSVGDRVSITCKASQIVGTSVAWYQQKAGQSPKLLIYWASTRHTGVPDRFTAGGSGTDFTLTITNVQSEDLADYFCQQYATYPLTFGSGTKLELK
notes: also called Fab JUN1; JUN1 Fab; source: HEK293T, heavy and light chains coexpressed, purified
  binding result: binds
